In US20230057012A1, “TGFB INHIBITORS AND USE THEREOF” (Scholar Rock, Inc., priority 2020, published 2023):

Biological target: antigen of FIG. 2 (not named)
Assay: SPR Biacore, Fab (FIG. 2)

times longer bound than the reference antibody: > 50 fold
B1: Ab46 Fab (Fab, V domains shown)
VH: EVQLLESGGGLVQPGGSLRLSCAASGFTFADYAMTWVRQAPGKGLEWVSAISGSGAATYFADSVKGRFTISRDNSKNTLYLQMNSLRAEDTAVYYCARVSSGHWDYDYWGQGTLVTVSS
VL: DIQLTQSPSSLSASVGDRVTITCRASQSISSYLNWYQQKPGKAPKLLIYAASGLESGVPSRFSGSGSGTDFTLTISSLQPEDFATYYCQQTYGVPLTFGGGTKVEIK
